In US20200270318A1:
No end group written: not given here.

Target: human PAC1 receptor with 3 hemagglutinin (HA) tags, expressed in Chinese Hamster Ovary (CHO) cells (human), P41586
Experiment: cell-based or functional assay

Chain of human PAC1 receptor with 3 hemagglutinin (HA) tags, expressed in Chinese Hamster Ovary (CHO) cells (human), P41586 (P41586 21-468): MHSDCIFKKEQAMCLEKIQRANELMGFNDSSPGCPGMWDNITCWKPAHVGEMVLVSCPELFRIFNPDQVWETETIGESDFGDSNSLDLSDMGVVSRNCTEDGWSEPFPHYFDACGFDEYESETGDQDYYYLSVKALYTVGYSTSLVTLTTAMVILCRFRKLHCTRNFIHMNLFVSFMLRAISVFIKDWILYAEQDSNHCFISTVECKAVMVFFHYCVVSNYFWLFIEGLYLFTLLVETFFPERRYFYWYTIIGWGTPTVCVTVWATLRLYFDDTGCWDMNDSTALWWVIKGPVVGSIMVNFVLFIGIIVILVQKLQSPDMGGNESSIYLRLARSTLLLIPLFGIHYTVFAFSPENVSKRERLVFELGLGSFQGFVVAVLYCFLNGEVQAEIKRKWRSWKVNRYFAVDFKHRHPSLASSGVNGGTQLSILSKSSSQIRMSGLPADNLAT

Binder	EMax (%), calcium flux (FLIPR), agonist mode, PAC1-CHO cells	IC50 (nM), antagonist mode (variable concentration) versus 5 nM PACAP1-27, calcium flux (FLIPR), PAC1-CHO cells	IMax (%), antagonist mode (variable concentration) versus 5 nM PACAP1-27; ( )=% inhibition at highest concentration	pA2 (nM), antagonist mode (fixed concentration), Gaddum/Schild EC50 shift of PACAP1-27 curves, calcium flux (FLIPR), PAC1-CHO cells
HSDGIFTDSYSRYRKQMAVKKYLAAVL-NH2 [PACAP1-27]	100%	–	–	–
FTDSYSRYRKQMAVKKYLAAVLGKRYKQRVKNY-NH2 [PACAP6-38]	–	> 333 nM	78.8%	201 nM
